Laboratory results from patent US20150368616A1, “METHODS FOR INDUCTION OF CELL FATES FROM PLURIPOTENT CELLS” (THE CLEVELAND CLINIC FOUNDATION, priority 2013, published 2015).

B1: Nbl1: DAN family protein, NBL1 protein (Sino Biologicals, cat number 10169-H02H) (protein, UniProt P41271 17-181, looked up)
Neuroblastoma suppressor of …: AAPPPINKLALFPDKSAWCEAKNITQIVGHSGCEAKSIQNRACLGQCFSYSVPNTFPQSTESLVHCDSCMPAQSMWEIVTLECPGHEEVPRVDKLVEKILHCSCQACGKEPSHEGLSVYVQGEDGPGSQPGTHPHPHPHPHPGGQTPEPEDPPGAPHTEEEGAED
B2: Noggin: BMP inhibitor (protein, UniProt Q13253 28-232, looked up)
Noggin: QHYLHIRPAPSDNLPLVDLIEHPDPIFDPKEKDLNETLLRSLLGGHYDPGFMATSPPEDRPGGGGGAAGGAEDLAELDQLLRQRPSGAMPSEIKGLEFSEGLAQGKKQRLSKKLRRKLQMWLWSQTFCPVLYAWNDLGSRFWPRYVKVGSCFSKRSCSVPEGMVCKPSKSVHLTVLRWRCQRRGGQRCGWIPIQYPIISECKCSC
B3: FGF10: FGF growth factor (protein, UniProt O15520 38-208, looked up)
Fibroblast growth factor 10: QALGQDMVSPEATNSSSSSFSSPSSAGRHVRSYNHLQGDVRWRKLFSFTKYFLKIEKNGKVSGTKKENCPYSILEITSVEIGVVAVKAINSNYYLAMNKKGKLYGSKEFNNDCKLKERIEENGYNTYASFNWQHNGRQMYVALNGKGAPRRGQKTRRKNTSAHFLPMVVHS
B4: Mfap5: non-canonical notch agonist (protein, UniProt Q9QZJ6 29-164, looked up)
Microfibrillar-associated …: QRGDDVPETFTDDPNLVNDPSTDDTALADITPSTDDLAGDKNATAECRDEKFACTRLYSVHRPVRQCVHQSCFTSLRRMYIINNEICSRLVCKEHEAMKDELCRQMAGLPPRRLRRSNYFRLPPCENMNLQRPDGL
B5: Hb-EGF: EGFR agonist (protein, UniProt Q99075 63-148, looked up)
Heparin-binding EGF-like …: DLQEADLDLLRVTLSSKPQALATPNKEEHGKRKKKGKGLGKKRDPCLRKYKDFCIHGECKYVKELRAPSCICHPGYHGERCHGLSL
B6: Il11: IL11R agonist (protein, UniProt P47873 22-199, looked up)
Interleukin-11: PGPPAGSPRVSSDPRADLDSAVLLTRSLLADTRQLAAQMRDKFPADGDHSLDSLPTLAMSAGTLGSLQLPGVLTRLRVDLMSYLRHVQWLRRAGGPSLKTLEPELGALQARLERLLRRLQLLMSRLALPQAAPDQPVIPLGPPASAWGSIRAAHAILGGLHLTLDWAVRGLLLLKTRL

Tests used:
Assay type in all cases: cell-based, human
[1] = system: forward differentiating hES culture; assay: Two stage protocol: Pan-CM 8 days then second stage medium with MG132, DAPT, forskolin, sodium propionate; transcript analysis; conditions: compared with MG132
Procedure: As a means to optimize the differentiation of insulin producing cells a two stage protocol was used in which pluripotent cultures were incubated in the presence of Pan-CM for 8 days as a means of generating pancreatic precursors cellular population. The medium these cultures were incubated in were subsequently changed to a medium designed to enhance differentiation of a pancreatic precursor towards a beta-cell terminal fate. All second stage experiments were performed in a medium composed of DMEM/F12 containing 12 mM Glucose supplemented with 1% B27, 1% Pyruvate, 1 uM Alk5 Inh II, 500 ng/ml Noggin and 0.5 uM (1,25 OH2)-Vit D3.
Among the compounds assayed for the ability to increase insulin production in a forward differentiating culture was the proteosomal inhibitor MG132 which we used in the previous example to stabilize Ngn3 protein. We also included the gamma secretase inhibitor DAPT, which was shown in the previous example to greatly increase beta-cell formation in the developing embryonic pancreatic explant study. We also included the short fatty acid salt sodium propionate, which acts as an agonist of short-chain fatty acid receptors. We also included the adenylyl cyclase activator forskolin. We also included the nuclear hormone receptor agonist 1,25 (OH)2)-Vit D3, which binds to, and activates the VDR protein. We also used intermediate concentrations of glucose, shown by others to increase formation of insulin producing cells from pluripotent derivatives. These compounds were used individually or in combination (as outlined in FIG. 37 panel A) to increase insulin-producing endocrine cell formation in a short term Pan-CM treated forward differentiating hES culture system.

pluripotent cultures = assay: Stage 4 administration of individual defined components in directed differentiation, RT-qPCR; conditions: component added at stage 4, 4 days
Source text: FIG. 46 (A-B)—Stage 4 administration of defined components. Pluripotent cultures were passaged onto matrigel and maintained in the presence of MEF-conditioned medium for three days before being subjected to a directed differentiation protocol. At the end of stage 3 the individual components of the cell conditioned medium were supplemented into the cultures. After 4 days RNA was extracted from the various cultures and subjected to RT-qPCR analysis for key markers.
We next explored if there were any beneficial effects from inclusion of the individual components of the cell conditioned medium in stage 4 cultures. The individual components were assayed in a directed differentiation protocol for their ability to up regulate markers of the pancreatic truck progenitor state. […] It was noted that both Mfap5 and Nbl1 up regulated the expression of HNF6.

hES cultures = assay: Individual defined medium components added throughout stages 2 and 3 of a directed differentiation protocol, qRT-PCR and IHC; conditions: for Pdx1 relative transcript level over hES levels / FoxA2 relative transcript level over hES levels: additive throughout stage 2 and stage 3; for Pdx1 relative transcript level over hES levels: control ~2500 fold; for FoxA2 relative transcript level over hES levels: control ~75 fold
Source text: To assay the individual protein components within the cell conditioned medium defined by the microarray analysis, the individual components were included throughout stages 2 and 3 of a directed differentiation protocol. […] Panels B-G show immunohistochemical stainings for Pdx1 and Hnf1-beta for the control reaction (panel B, D and F) and the reaction performed with the addition of Hb-EGF (panels C, E and G).
Since we have seen that the Pan-CM induced differentiation of the pluripotent culture results in an increased presence of pancreatic progenitors within forward differentiating cultures we next assayed the individual components of the cell conditioned medium as single additives throughout stage 2 and stage 3 of a directed differentiation protocol. Stage 2 and stage 3 cultures were assayed since these are the stages which normally establish pancreatic endoderm within directed differentiation protocols. An outlined schematic of the components used throughout the directed differentiation is provided in FIG. 45 panel A. Three genes were assayed throughout this series of experiments: the endodermal gene FoxA2, the early pancreatic progenitor gene Pdx1 and the endocrine progenitor gene Nkx6.1. […] The most dramatic effect noted within the genes assayed throughout this series of experiments was observed within the Pdx1 transcript levels obtained within cultures that had either Hb-EGF or FGF10 included throughout stage 2 and stage 3.
While this series of experiments have successfully established a beneficial effect for the inclusion of a FGF ligand within throughout stages 2 and 3 of a directed differentiation protocol, it should be noted many directed differentiation protocols already currently include a either FGF10 or FGF7 within either stage 2, stage 3 or both. […] This effect may have been due to the high concentration of Activin A used within these reactions 100 ng/ml. This high concentration was chosen because it is the typical concentration used in generating endoderm during stage 1 of directed differentiation protocols, however the actual concentration present within the Pan-CM was undetermined and may have been quite lower. […] This implies that the benefit due to their presence within the directed differentiation protocol may only be detectable by assaying other pancreatic markers or assaying the directed differentiation cultures at later stages, or as in them being a supportive component in a multi-factorial additive provision, yet unable to operate to induce pancreatic fates when provided alone.

Bmp4 = Bmp4 stimulus of pluripotent cells with Nbl1 or Noggin: phospho smad 1/5/8 Western/IHC, ID factor RNA; conditions: for ID2 and ID4, direct gene targets of Bmp4 signaling / Bmp4 induced phosphorylated smad 1/5/8: 24 hours; for ID2 and ID4, direct gene targets of Bmp4 signaling: RNA analysis; for Bmp4 induced phosphorylated smad 1/5/8: Western blot and IHC
Procedure: FIG. 42 (A-C)—Nbl1 inhibits BMPs. Pluripotent cells were incubated in the presence of Bmp4 alone or in combination with Nbl1 or Noggin for 24 hours. The following day cultures were assayed for downstream targets of Bmp4 signaling. […] Note the reduced expression of the phosphorylated smads for both Nbl1 and Noggin. […] In addition the down stream activation of AFP was loss in the cultures treated with Nbl1 and Noggin.
Our initial experiment testing the ability of a Pan-CM informed defined medium ability to replicate the direct induction of pancreatic fates relied on the use of Noggin as a BMP inhibitor. This was due to the fact that Nbl1 was not available at the time so a member of the same family of proteins was used. We obtained the NBL1 protein (Sino Biologicals, cat number 10169-H02H) and determined if Nbl1 operates as a Bmp signaling inhibitor. Pluripotent cultures were subjected to a Bmp4 stimulus in the presence and absence of either Noggin or Nbl1. […] This inhibitory effect was also observed by immunohistochemical analysis of the treated cultures and is shown in FIG. 42 panel B. In addition the direct gene targets of Bmp4 signaling, ID2 and ID4, were assayed and shown to be inhibited in the presence of Noggin or Nbl1 (FIG. 42 panel C) as was the downstream target of Afp (panel B).

Molecule	NKX6.1 expression (pluripotent cultures)	PDX1 expression (pluripotent cultures)	Pdx1 relative transcript level over hES levels (hES cultures)	further results
CCC(=O)[O-].[Na+] [sodium propionate]	–	–	–	effects on pancreas-specific transcript levels [1]: minor in comparison
Activin A: Activin receptor agonist	positively effected	significantly up-regulated	–	effect of continued incubation on the cultures (hES cultures; 100 ng/ml throughout stage 2 and 3): detrimental effect on the cultures
Cxcl12: CXCR4 agonist, stromal cell derived factor one	–	down-regulated	slight increase	–
B1	positively effected	–	–	HNF6 expression (pluripotent cultures): up regulated; function on Bmp4 signaling (Bmp4): functions as a Bmp4 inhibitor; ID2 and ID4, direct gene targets of Bmp4 signaling (Bmp4): inhibited; Bmp4 induced phosphorylated smad 1/5/8 (Bmp4): failed to produce this BMP specific phosphorylation event
B2	–	–	–	ID2 and ID4, direct gene targets of Bmp4 signaling (Bmp4): inhibited; Bmp4 induced phosphorylated smad 1/5/8 (Bmp4): failed to produce this BMP specific phosphorylation event
B3	–	–	~8500 fold	–
B4	positively effected	significantly up-regulated	–	HNF6 expression (pluripotent cultures): up regulated
B5	–	down-regulated	~8500 fold	FoxA2 relative transcript level over hES levels (hES cultures): ~125 fold
B6	positively effected	significantly up-regulated	slight increase	FoxA2 relative transcript level over hES levels (hES cultures): ~160 fold
